Target: T1, GB-yeIF5-B6 (S. cerevisiae, UniProt P38431 241-405)
T1 sequence (looked up): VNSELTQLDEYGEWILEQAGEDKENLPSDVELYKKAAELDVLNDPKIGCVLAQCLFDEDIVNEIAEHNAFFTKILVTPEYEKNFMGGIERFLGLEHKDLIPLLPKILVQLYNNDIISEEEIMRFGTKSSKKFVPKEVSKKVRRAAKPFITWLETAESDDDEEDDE
Test: pull-down

B1: GST-yeIF1A ΔC (lacking aa. 108-153) (domain or fragment, S. cerevisiae, UniProt P38912 1-107, looked up)
chain: MGKKNTKGGKKGRRGKNDSDGPKRELIYKEEGQEYAQITKMLGNGRVEASCFDGNKRMAHIRGKLRKKVWMGQGDIILVSLRDFQDDQCDVVHKYNLDEARTLKNQG
Q: Does B1 bind?
A: Result: binds
